Assay results as given in article PMC6677818.

Tests used:
[1] = biological target: calcineurin, WT CN (CNA_(1–370):CNB_(1–170)) (human) (UniProt Q08209); experiment: ITC; NHE1 or variants (30–50 µM, syringe) titrated into CN (5–10 µM, cell), 25 °C, 20 mM Tris–HCl pH 7.5, 100 mM NaCl, 1 mM CaCl2, 0.5 mM TCEP; single site-binding model
[2] = biological target: calcineurin, WT CN (CNA_(1–370):CNB_(1–170)) (human) (UniProt Q08209)
[3] = biological target: CNA alone (alpha isoform: H27-D348; two C-terminal Asp residues added) (human) (UniProt Q08209)
[4] = biological target: CNAA variant (CNA: H155A/Y159A, CNB), crystallisation construct CNA M1-N370 H155A Y159A, CNB 16–170 (human) (UniProt Q08209)

Sequence of UniProt Q08209 (Q08209 other isoform, or with tags, fused parts or gaps): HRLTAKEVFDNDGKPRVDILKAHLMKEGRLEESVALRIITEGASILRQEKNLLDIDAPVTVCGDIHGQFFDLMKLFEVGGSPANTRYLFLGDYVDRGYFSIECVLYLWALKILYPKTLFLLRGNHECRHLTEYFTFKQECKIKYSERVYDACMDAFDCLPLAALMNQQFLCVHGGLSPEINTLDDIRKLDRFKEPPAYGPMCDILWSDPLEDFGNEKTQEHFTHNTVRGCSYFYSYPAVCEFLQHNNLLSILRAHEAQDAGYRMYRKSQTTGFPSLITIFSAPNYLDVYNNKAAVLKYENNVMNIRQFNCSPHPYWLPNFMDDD

Kd [1] [nM] | dH [1] [kcal/mol] | apparent in vitro dephosphorylation rate k (dephos) of pT779 of ERK2-phosphorylated NHE1ct variant by CN (NMR time course) [2] [h^-1] | apparent in vitro dephosphorylation rate k (dephos) of pT779 of ERK2-phosphorylated NHE1ct by CNA alone (NMR time course) [3] [h^-1] | apparent in vitro dephosphorylation rate k (dephos) of pT779 of ERK2-phosphorylated NHE1ct by CNAA (NMR time course; 20:1 NHE1ct:CN, rate normalized using wt-NHE1ct) [4] [h^-1] | stoichiometry N [1] | Substance
6500 | -2.9 | – | – | – | – | PxIxIT peptide (NHE1 E709-P727) (from UniProt P19634 709-727)
21 | -8.5 | – | – | – | – | NHE1ctΔ92 (NHE1 I680-S723) (from UniProt P19634 680-723) (domain or fragment)
48 | -2.8 | 0.028 | – | – | – | NHE1ct P782A (NHE1 I680-Q815) (from UniProt P19634 680-815) (domain or fragment)
4800 | -4.5 | 0.642 | – | – | – | NHE1ct_(ATAP) (NHE1 I680-Q815, L684A, V686A) (from UniProt P19634 680-815) (domain or fragment)
21 | -12.2 | – | – | – | – | NHE1ct_(Δ92RARA) (NHE1ctΔ92 698AAA700; R698A, R700A) (from UniProt P19634 680-723) (domain or fragment)
– | – | 0.811 | – | – | – | NHE1ct_(ATAP/AVATAA) (NHE1 I680-Q815, L684A, V686A, P715A, I717A, I719A, D720A) (from UniProt P19634 680-815) (domain or fragment)
59 | -12 | – | 0.347 | 0.06 | 1 | NHE1ct WT (human NHE1 I680-Q815) (from UniProt P19634 680-815) (domain or fragment)
2400 | -7.6 | 0.011 | – | – | – | NHE1ct_(AVATAA) (NHE1 I680-Q815, P715A, I717A, I719A, D720A) (from UniProt P19634 680-815) (domain or fragment)
4 | -9 | – | – | – | – | NHE1ctΔ92 (PVIVIT) (from UniProt P19634 680-723) (domain or fragment)
